Measured values as given in US20190249141A1.

Columns and labels:
[1] = target: CD40 on mouse splenic B cells (mouse) (UniProt P27512); experiment: cell-based or functional assay
[2] = target: recombinant murine CD40L (M112-L260) with N-terminal HA tag (murine); experiment: loading of HA-tagged CD40L on anti-HA antibody microbeads; protein in the supernatant (A280) measured before and after incubation

UniProt P27512, sequence (P27512 20-289): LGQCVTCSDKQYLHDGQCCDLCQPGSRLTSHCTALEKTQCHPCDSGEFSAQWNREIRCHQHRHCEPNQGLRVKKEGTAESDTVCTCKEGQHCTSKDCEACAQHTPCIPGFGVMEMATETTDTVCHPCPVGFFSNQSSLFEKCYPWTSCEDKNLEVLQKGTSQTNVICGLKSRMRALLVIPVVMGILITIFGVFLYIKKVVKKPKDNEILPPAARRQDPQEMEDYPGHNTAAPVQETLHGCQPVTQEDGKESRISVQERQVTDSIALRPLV

Row | maximum surface density of CD40L on anti-HA microbeads (molecules µm^-2) [2] | Substance | cell viability on Day 6 of B cells activated by αCD40 [1] [%]
1 |  | anti-CD40 antibody (clone 1C10, eBioscience) | 2 to 5
2 | 27000 | anti-HA peptide antibody covalently attached to superparamagnetic microbeads (Pierce) | 
